Data reported in patent publication US20170096652.

Target: transcription factor DdrO (Gene ID: 1798752; NP_296294.1) of Deinococcus radiodurans

B1: PprI protease (gene pprI, dr_0167; GeneID: 1798483; NCBI-GI: 15805204) of Deinococcus radiodurans (protein)
chain: MPSANVSPPCPSGVRGGGMGPKAKAEASKPHPQIPVKLPFVTAPDALAAAKARMRDLAAAYVAALPGRDTHSLMAGVPGVDLKFMPLGWRDGAFDPEHNVILINSAARPERQRFTLAHEIGHAILLGDDDLLSDIHDAYEGERLEQVIETLCNVAAAAILMPEPVIAEMLERFGPTGRALAELAKRAEVSASSALYALTEQTPVPVIYAVCAPGKPPREQAASDEDAGPSTEKVLTVRASSSTRGVKYTLASGTPVPADHPAALALATGMEVREESYVPFRSGRKMKAEVDAYPSRGIVAVSFEFDPARLGRKDSEQADRDEPQDAAQ
- PprI cleavage activity detected by Western blotting: PprI cleaves DdrO into two fragments
- protease activity in vitro, SDS-PAGE (40 minutes, 2.0 mM MnCl2): DdrO was cleaved by PprI into two fragments
- protease activity in vitro, SDS-PAGE (40 minutes, 3.0 mM MnCl2): DdrO was cleaved by PprI into two fragments
- protease activity in vitro, SDS-PAGE (40 minutes, 5.0 mM MnCl2): DdrO was cleaved by PprI into two fragments
